Among the data in patent publication US20190345485A1 are NFAT-activation triggered by a T-cell population holding 1% peptide-specific CD4+ T-cells (% of the maximal NFAT-activation) values, retold here.

This experiment addresses MCR2(OVA). As to the kind of experiment: cell-based or functional assay.

For the substance OT-II TCR, the NFAT-activation triggered by a T-cell population holding 1% peptide-specific CD4+ T-cells (% of the maximal NFAT-activation) came to 50.
